Measured values as given in PMC9253517 (The Journal of Experimental Medicine, 2022).
Residue numbers refer to the chain shown, from its start.

B1: JR212 (antibody, V domains shown)
VH: QVQLVQSGAEVKKPGSSVKVSCKASGGTFSNYAISWVRQAPGQGLEWMGGIIPLFGTTNYAQKFQGRVTITADESTSTAYMELSSLRSEDTAMYYCASYSSGYHLVTDYWGQGTLVTVSS
VL: EIVLTQSPGTLSLSPGERATLSCRASQSVTSSYLAWYQQKPGQAPRLLIYGASSRATGIPDRFSGSGSGTDFTLTISRLEPEDFAVYYCQQYGTSRTFGQGTKVEIK
B2: JR310 (antibody, V domains shown)
VH: EVQLVESGGGLIQPGGSLRLSCAASGFTVSSNYMSWVRQAPGKGLEWVSVIYSGGSTYYADSVKGRFTISRDNSKNTLYLQMNSLRAEDTAVYYCARGDPSDYYYYGMDVWGQGTTVTVSS
VL: QSVLTQPPSVSGAPGQRVTISCTGSSSNIGAGYDVHWYQQLPGTAPKLLIYGNSNRPSGVPDRFSGSKSGTSASLAITGLQAEDEADYYCQSYDSSLSGSGVFGTGTKVTVL
B3: JR216 (antibody, V domains shown)
VH: QLQLQESGPGLVKPSETLSLTCTVSGGSISSGSYFWGWIRQPPGKGLEWIGNIYNSGSTYYSPSLKSRVTISVNTSKNQFSLKMSSVTAADTAVYYCARQPWLRSQFDYWGQGTLVTVSS
VL: NFMLTQPHSVSESPGKTVTISCTGSSGSIASNYVQWYQQRPGSAPTNVIYEDNQRPSGVPDRFSGSIDSSSNSASLTISGLKTEDEADYYCQSYDSSTVVFGGGTKLTVL
B4: JR092 (antibody, V domains shown)
VH: QVQLVESGGGLVKPGGSLRLSCAASGFTFSDYYMSWIRQAPGKGLEWVSYSSSRGSIIHYADSVKGRFTISRDNAKNSLCLQMNSLRAEDTAVYYCARATTPYSGYSMWGQGTLVTVSS
VL: B3 VL with N47T, T98N, V99W
B5: JR210 (antibody, V domains shown)
VH: EVQLVESGGGLVQPGGSLRLSCAASGFTFSNYWMTWVRQAPGKGLEWVANIKQDGSEKYYVDSVKGRFTISRDNAKNSLYLQMNSLRAEDTAVYYCARDLAVAISWFDPWGQGTLVTVSS
VL: B3 VL with I20M, G24R, A44S, N47T, Q92H, S97P, T98R
B6: JR086 (antibody, V domains shown)
VH: QVQLVQSGAEVKKPGASVKVSCKASGYTFTGYYMHWVRQAPGQGLEWMGWINPISGATNYAQKFQGGVTMTRDTSISTAYMELSRLRSDDTAVYYCARVNHIVVVTAIDPIYGMDVWGQGTTVTVSS
VL: QSALTQPASVSGSPGQSITISCTGTSSDVGGYNYVSWYQQHPGKAPKLMIYEVSNRPSGVSNRFSGSKSGNTASLTISGLQAEDEADYYCSSYTSSSTLYYVFGTGTKVTVL
B7: JR094 (antibody, V domains shown)
VH: EVQLVQSGAEVKKPGESLKISCKGSGYSFIFYWIGWVRQMPGKGLEWMGIIYPGDSDTRYSPSFQGQVTISADKSISTAYLQWSSLKASDTAMYYCASTVTRSPYDAFDMWGQGTMVTVSS
VL: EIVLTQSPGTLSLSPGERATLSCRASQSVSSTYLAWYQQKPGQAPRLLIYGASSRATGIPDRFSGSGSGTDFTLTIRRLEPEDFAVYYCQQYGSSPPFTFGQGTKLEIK
B8: JR171 (antibody, V domains shown)
VH: QVQLVQSGAEVKKPGASVKVSCKASGYTFTSYYMHWVRQAPGQGLEWMGIINPSGGSTSYAQKFQGRVTMTRDTSTSTVYMELSSLRSEDTAVYYCARAYDSAPGFDYWGQGTLVTVSS
VL: DIQLTQSPSFLSASVGDRVTITCRASQGISSYLAWYQQKPGKAPKLLIYAASTLQSGVPSRFSGSGSGTEFTLTISSLQPEDFATYYCQQLNSYPSITFGQGTRLEIK
B9: JR179 (antibody, V domains shown)
VH: QVQLVQSGAEVKKPGASVKVSCKASGYTFSSFAISWVRQAPGQGLEWMGWISAYNGNTNYAQNLQGRVTMTTDTSTSTVYMELRSLRSDDTAVYYCAREAGLTGNLDYWGQGTLVTVSS
VL: SYELTQPPSVSVAPGQTARITCGGNNIGSKNVHWYQQKPGQAPVVVVYDDSDRPSGIPERFSGSNSGNTATLTISRVEAGDEADYYCQVWDSRSYHHVVFGGGTKLTVL
B10: JR049 (antibody, V domains shown)
VH: EVQLVESGGGLVQPGGSLRLSCAASGFTFSSYDMHWVRQVTGKGLEWVSGIGTAGDTYYRDSVKGRFTISRENAKKSLYLQMNSLRAGDTAVYYCARDNGALYYYGSGAMDVWGKGTTVTVSS
VL: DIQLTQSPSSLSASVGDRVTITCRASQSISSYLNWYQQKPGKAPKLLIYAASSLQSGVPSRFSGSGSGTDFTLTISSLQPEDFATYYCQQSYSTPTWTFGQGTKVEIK
B11: JR095 (antibody, V domains shown)
VH: VQLVESGGGVVQPGRSLRLSCAASGFTFSRYAMHWVRQAPGKGLQWVAIISYDGSNKYYADSVKGRFTISRDNSKNTLYLQMNSLRAEDTAVYYCARHITGTDYWGQGTLVTVSS
VL: DIQMTQSPSSLSASVGDRVTITCRASQGISIYLAWFQQKPGKAPKSLIYAASNLQSGVPSKFSGSGSGTDFTLTISSLQPEDFATYYCQQYDSYPITFGQGTRLEIK
B12: JR174 (antibody, V domains shown)
VH: QVQLVQSGAEVKKPGSSVKVSCKASGGTFSSYAISWVRQAPGQGLEWMGGIIPIFGTAHYAQKFQGRVTITADESTSTAYMELSSLRSEDTAVYFCARDLGGIQLYLLAYWGQGTLVTVSS
VL: EIVLTQSPVTLSLSPGERATLSCRASQSVSSTYLAWYQQKPGQAPRLLIYGASSRATGIPDRFSGSGSGTDFTLTISRLEPEDFAVYYCQQYVGSPGTFGQGTKVEIK
B13: JR090 (antibody, V domains shown)
VH: QVQLQQWGAGLLKPSETLSRTCAVYGGSFSGHYWSWIRQPPGKGLEWIGEINHSGSTNYNPSLKSRVTISVDTSKNQFSLKLSSVTAADTAVYYCARGSRAVAGTAVYFDLWGRGTLVTVSS
VL: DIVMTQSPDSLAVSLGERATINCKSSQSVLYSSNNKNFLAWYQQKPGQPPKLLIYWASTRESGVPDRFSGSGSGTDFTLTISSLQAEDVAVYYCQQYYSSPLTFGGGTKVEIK
B14: JR097 (antibody, V domains shown)
VH: QVQLVQSGAEVKKPGASVKVSCKTSAYTFTTYFMHWVRQAPGQGLEWMGIINPSGGSTRYAQKFQGRVTMTRDTSTSTVYMELSGLRSEDTAVYYCARERRPGFYDSSGYSFDYWGQGTLVTVSS
VL: SYELTQPPSVSVAPGKTARITCGGNNIGSKSVHWYQQKPGQAPVLVVYDDSDRPSGIPERFSGSNSGNTATLTISRVEAGDEADYYCQVWDSSSDPVVFGGGTKLTVL
B15: JR093 (antibody, V domains shown)
VH: QVQLVQSGAEVKKPGSSVKVSCKASGGTFSSYAISWVRQAPGQGLEWMGRIVPILNIANYAQRFQGRVTITADKSTSTAYMELSSLRSEDTAVYYCASPGSLLLGERIDELQFDYWGQGTLVTVSS
VL: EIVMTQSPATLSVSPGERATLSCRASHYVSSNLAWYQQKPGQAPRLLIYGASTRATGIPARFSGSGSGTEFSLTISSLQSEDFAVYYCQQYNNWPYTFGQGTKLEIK
B16: JR172 (antibody, V domains shown)
VH: EVQLVESGGGLVQPGRSLRLSCAASGFTFDDYAMHWVRQTPGKGLEWVSSISWNSGSIGYADSVKGRFTISRDNAKNSLYLQMNSLRAEDTALYYCAKDKRIDYSNYGGGFDHWGQGTLVTVSS
VL: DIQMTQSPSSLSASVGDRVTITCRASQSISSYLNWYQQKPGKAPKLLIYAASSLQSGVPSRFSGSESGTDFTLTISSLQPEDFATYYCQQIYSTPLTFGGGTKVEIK
B17: JR215 (antibody, V domains shown)
VH: QVQLVQSGAEVKKPGASVKVSCKASGYTFTGYYMHWVRQAPGQGLEWMGRINPNSGDTNFPQKFQGRVTMTRDTSISTAYMELSRLRSDDTAVYYCARDGVADFNYDYWGQGTLVTVSS
VL: LTQPASVSGSPGQSITISCTGSSSDVGSYNLVSWYQQHPGKAPKLMIYEVSRRPSGVSNRFSGSKSGNTASLTISGLQAEDEADYYCCSYAGSSTWEVLFGGGTKLTVL
B18: JR041 (antibody, V domains shown)
VH: EVQLVESGGGLVQPGRSLRLSCAASGFTFDDYAMYWVRQAPGKGLEWVSGISWNSGSIGYADSVKGRFTISRDNAKNSLYLQMNSLRAEDTALYYCAKDISYHTGTIDYWGQGTLVTVSS
VL: QSALTQPASVSGSPGQSITISCTGTSSDIGGYNYVSWYQQHPGKAPKLMIYDVSNRPSGVSNRFSGSKSGNTASLTISGLQAEDEADYYCSSYTSSSTLGVGGGTKLTVL
B19: JR211 (antibody, V domains shown)
VH: QVQLQESGPGLVKPSGTLSLTCAVSGGSISSSHWWNWVRQPPGKGLEWIGEIYHSGSTNYSPSLKSRVTISVDKSKNQFSLKLSSVTAADTAVYYCAKSMRAGPNDGFDYWGQGTLVTVSS
VL: B18 VL with I29V, L99V, G100V, V101F
B20: JR088 (antibody, V domains shown)
VH: QVQLQQSGPGLVKPSQTLSLTCAISGDSVSSDSAAWNWIRQSPSRGLEWLGRTYYRSKWSNDYEVSVKSRITINPDTSKNQFSLQLNSVTPEDTAVYYCAKQQLVLDDAFDIWGQGTMVTVSS
VL: QSALTQPRSVSGSPGQSVTISCTGTSSDVGGHNYVSWYEQHPGKAPKLMMYDVSKRPSGVPDRFSGSKSGNTASLTISGLQAEDEADYYCCSYAGSYIWVFGGGTKLTVL
B21: JR170 (antibody, V domains shown)
VH: QVQLVQSGAEVRKPGASVKVSCKASRYTFTNNYIHWVRQAPGQGLEWMGIINPSGGSTTYAQKFQGRVTMTGDTSTSTVYMELSSLRSEDTAVYYCARGGFVPAATSYFDYWGQGTLVTVS
VL: B20 VL with H32Y, E39Q, M50I, I98T, W99L

Experiments:
[1] = target: T1, SARS-CoV-2 Wuhan-Hu-1 RBD (SARS-CoV-2, Wuhan-Hu-1 (GenBank …, UniProt P0DTC2)); experiment: cell-based or functional assay
[2] = target: T1, SARS-CoV-2 Wuhan-Hu-1 RBD; experiment: BLI; conditions: both partners purified

Row | Binder | neutralisation IC50, Wuhan-Hu-1 pseudovirus [1] [µg/mL] | binding result [2]
1 | B1 | 0.178 | binds
2 | B2 | 0.219 | binds
3 | B3 | 0.0458 | binds
4 | B4 | 0.109 | binds
5 | B5 | 0.0897 | binds
6 | B6 | 0.0358 | binds
7 | B7 | > 1 | binds
8 | B8 | > 1 | binds
9 | B9 | > 1 | binds
10 | B10 | > 1 | binds
11 | B11 | > 1 | binds
12 | B12 | 0.0798 | binds
13 | B13 | > 1 | binds
14 | B14 | > 1 | binds
15 | B15 | 0.131 | binds
16 | B16 | > 1 | binds
17 | B17 | 0.0448 | binds
18 | B18 | 0.0547 | binds
19 | B19 | > 1 | binds
20 | B20 | 0.0381 | binds
21 | B21 | > 1 | binds
